{"source": "patent US9782486B2", "about": "“Albumin conjugated temperature and pH-sensitive multi-block copolymer, a method of preparation thereof and drug delivery system using the same” (Research & Business Foundation Sungkyunkwan University, priority 2014, dated 2017)", "key": {"[1]": {"conditions": "cited from earlier work"}, "[2]": {"experiment": "Zeta potential measurement", "assay_type": "physicochemical", "conditions": "solution alone, pH 7.4, 1 mg/mL, room temperature", "protocol": "The zeta potential values of the PAU and PAUBSA conjugates were measured at room temperature by Metasizer Nano ZS instrument (Malvern Instrument). The solution concentrations for all samples were 1 mg/mL and their pH was adjusted to 7.4. The solutions were stabilized at room temperature for 20 minutes before measurement."}, "[3]": {"experiment": "In vivo lysozyme release, lysozyme in blood serum (ELISA)", "set-up": "species or system male SD rats", "protocol": "(§1) In order to examine the in vivo release of lysozyme, a sample solution loaded with 250 μL of lysozyme was injected to male SD rats (three rats per group). At predetermined times, blood samples were collected from the caudal vein, centrifuged to obtain blood sera, and stored them at −21° C. until the next analysis. The concentration of the lysozyme in the blood sera was measured using a commercial lysozyme (LZM) ELISA kit (Cusabio, China).\nas §1, with “tunes,” for “times,”"}, "[4]": {"conditions": "single subcutaneous injection of lysozyme-loaded sample"}}, "note": "Like-named read-outs stand apart in the source and are kept apart here."}
{"substance": "lysozyme: chicken egg white lysozyme, model protein loaded into the hydrogels; also injected as plain solution", "values": [{"measurement": "temperature up to which thermal stability is maintained", "setting": "[1]; in the presence of an anionic modified polymer", "value": "up to 72 °C"}, {"measurement": "bioactivity of lysozyme released from PEG-based hydrogels and other polymeric devices", "setting": "[1]; up to 28 days", "value": "about 95%"}, {"measurement": "bioactivity of lysozyme released from PEG-based hydrogels and other polymeric devices", "setting": "[1]; up to 50 days", "value": 100, "unit": "%"}, {"measurement": "zeta potential", "setting": "[2]", "value": 11.2, "unit": "mV"}, {"measurement": "duration of lysozyme release until serum lysozyme reached the normal level", "setting": "[3]; [4]", "value": "within nine days"}, {"measurement": "initial burst release of lysozyme in vivo", "setting": "[3]; [4]", "value": "initial burst was obviously observed"}, {"measurement": "time to reach peak lysozyme level", "setting": "[3]; single subcutaneous injection, 10 mg/mL lysozyme", "value": "within two days"}, {"measurement": "peak lysozyme level in blood", "setting": "[3]; single subcutaneous injection, 10 mg/mL lysozyme in the preparation", "value": "about 447 ng/mL"}]}
